Source: US20140256621A1 (published 2014)
Changes are numbered by the printed parent chain.

T1: chimeric Hu-Leptin/Mu-EPO receptor (human; mouse, UniProt P48357 22-839; P14753 250-507)
T1 sequence (looked up): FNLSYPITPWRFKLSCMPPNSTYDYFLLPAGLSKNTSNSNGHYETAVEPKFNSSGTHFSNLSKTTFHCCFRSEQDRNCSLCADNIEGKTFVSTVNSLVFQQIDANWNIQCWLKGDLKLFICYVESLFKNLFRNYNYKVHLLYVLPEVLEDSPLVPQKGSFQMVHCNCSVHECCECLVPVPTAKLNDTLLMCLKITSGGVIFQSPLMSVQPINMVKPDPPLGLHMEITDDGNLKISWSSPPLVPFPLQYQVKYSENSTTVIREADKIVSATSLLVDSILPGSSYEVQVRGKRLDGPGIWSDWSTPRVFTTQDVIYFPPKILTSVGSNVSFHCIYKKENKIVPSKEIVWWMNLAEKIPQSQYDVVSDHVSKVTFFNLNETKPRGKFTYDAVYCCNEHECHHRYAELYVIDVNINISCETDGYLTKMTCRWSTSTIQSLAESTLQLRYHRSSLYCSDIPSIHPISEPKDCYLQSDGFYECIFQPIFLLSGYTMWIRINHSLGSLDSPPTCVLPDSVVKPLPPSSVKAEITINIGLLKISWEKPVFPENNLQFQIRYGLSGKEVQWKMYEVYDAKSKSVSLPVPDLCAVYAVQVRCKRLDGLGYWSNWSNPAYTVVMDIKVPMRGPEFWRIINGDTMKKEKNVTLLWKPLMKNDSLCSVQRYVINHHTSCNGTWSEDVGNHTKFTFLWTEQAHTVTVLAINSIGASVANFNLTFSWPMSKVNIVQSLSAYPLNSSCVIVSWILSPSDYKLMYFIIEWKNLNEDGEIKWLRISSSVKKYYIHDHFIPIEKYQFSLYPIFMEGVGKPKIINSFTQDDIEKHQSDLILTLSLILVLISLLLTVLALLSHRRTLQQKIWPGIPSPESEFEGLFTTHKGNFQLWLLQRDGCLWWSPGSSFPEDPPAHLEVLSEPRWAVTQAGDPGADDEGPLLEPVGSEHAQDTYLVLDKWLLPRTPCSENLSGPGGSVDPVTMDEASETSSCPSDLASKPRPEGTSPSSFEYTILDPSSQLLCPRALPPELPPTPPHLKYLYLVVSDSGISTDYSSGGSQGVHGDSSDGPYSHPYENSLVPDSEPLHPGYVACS

B1: Cmpd 1 (other)
chain: MGSLAEAKEAANAELDSYGVSDFYKRLIDKAKTVEGVEALKDAILAALPTGGGGASVPIQKVQDDTKTLIKTIVTRINDISHTQSVSSKQKVTGLEFIPGLHPILTLSKMDQTLAVYQQILTSMPSRNVIQISNDLENLRDLLHVLAFSKSCHLPQASGLETLESLGGVLEASGYSTEVVALSRLQGSLQDMLQQLDLSPGC
B2: Cmpd 68 (other)
chain: MLAEAKEAANAELDSYGVSDFYKRLIDKAKTVEGVEALKDAILAALPTGGGGSGGGSGGGSGGGSASVPIQKVQDDTKTLIKTIVTRINDISHTQSVSSKQKVTGLEFIPGLHPILTLSKMDQTLAVYQQILTSMPSRNVIQISNDLENLRDLLHVLAFSKSCHLPQASGLETLESLGGVLEASGYSTEVVALSRLQGSLQDMLQQLDLSPGC
B3: Cmpd 71 (other)
chain: MLAEAKEAANAELDSYGVSDFYKRLIDKAKTVEGVEALKDAILAALPTGGGGSGGGSGGGSGGGSASPIQRVQDDTKTLIKTIITRINDISHTQSVSSKQKVTGLDFIPGLHPILTLSGMDQILATYQQILTSLQSRNVIQISNDLENLRDLLHVLAFSKSCPVPRARGSDTIKGLGNVLRASVHSTEVVALSRLKAALQDMLRQLDRNPGC
B4: Cmpd 70 (other)
chain: MGSLAEAKVLANRELDKYGVSDFYKRLIDKAKTVEGVEALKDAILAALPTGGEGGEGGEGGEGGEGGEASVPIQKVQDDTKTLIKTIVTRINDISHTQSVSSKQKVTGLEFIPGLHPILTLSKMDQTLAVYQQILTSMPSRNVIQISNDLENLRDLLHVLAFSKSCHLPQASGLETLESLGGVLEASGYSTEVVALSRLQGSLQDMLQQLDLSPGC
B5: PEP07986-negative linker-A500 (Compound 12) (other)
chain: B4 chain with V9E, L10A, R13A, K17S
notes: also called Cmpd 12; PEP07986-Negative-A500
B6: Cmpd 69 (other)
chain: B4 chain with D29E, D42E
B7: Cmpd 64 (other)
chain: MLAEAKEAANAELDSYGVSDFYKRLIDKAKTVEGVEALKDAILAALPTGGGGSGGGSGGGSGGGSASPIQRVQDDTKTLIKTIITRINDISPPQGVSSRPRVAGLDFIPRVQSVRTLSGMDQILATYQQILTSLQSRNVIQISNDLENLRDLLHVLAFSKSCPVPRARGSDTIKGLGNVLRASVHSTEVVALSRLKAALQDMLRQLDRNPGC
B8: Cmpd 9 (other)
chain: MGSLAEAKEAANAELDSYGVSDFYKRLIDKAKTVEGVEALKDAILAALPTGGGGSGGGSGGGSGGGSASPIQRVQDDTKTLIKTIITRINDISPPQGVSSRPRVAGLDFIPRVQSVRTLSGMDQILATYQQILTSLQSRNVIQISNDLENLRDLLHVLAFSKSCPVPRARGSDTIKGLGNVLRASVHSTEVVALSRLKAALQDMLRQLDRNPGC
B9: PEP07986-neutral linker-A500 (Compound 2) (other)
chain: MGSLAEAKEAANAELDSYGVSDFYKRLIDKAKTVEGVEALKDAILAALPTGGGGSGGGSGGGSGGGSASVPIQKVQDDTKTLIKTIVTRINDISHTQSVSSKQKVTGLEFIPGLHPILTLSKMDQTLAVYQQILTSMPSRNVIQISNDLENLRDLLHVLAFSKSCHLPQASGLETLESLGGVLEASGYSTEVVALSRLQGSLQDMLQQLDLSPGC
notes: also called Cmpd 2; PEP07986-Neutral-A500
B10: Cmpd 41 (other)
chain: B9 chain with E6Q, A13R
B11: Cmpd 55 (other)
chain: B9 chain with E9V, A10L, A13R, S17K
B12: Cmpd 63 (printed with SEQ ID NO: 659 in Table X4) (other)
chain: B9 chain with H166S, G181E, M205I, G214E
B13: Cmpd 48 (other)
chain: B9 chain with A13R, S17A

Columns and labels:
[1] = molecular target: T1, chimeric Hu-Leptin/Mu-EPO receptor; test: cell-based or functional assay
Rat SA = molecular target: T2, Rat SA (rat, UniProt P02770 25-608); test: SPR (BioRad ProteOn XPR36), albumin amine-coupled on GLC chip, polypeptide injected from 5 nM in 3-fold dilutions, 25 C; relative KD
T2 construct: also called rat serum albumin
T2 sequence (P02770 25-608 limits assumed): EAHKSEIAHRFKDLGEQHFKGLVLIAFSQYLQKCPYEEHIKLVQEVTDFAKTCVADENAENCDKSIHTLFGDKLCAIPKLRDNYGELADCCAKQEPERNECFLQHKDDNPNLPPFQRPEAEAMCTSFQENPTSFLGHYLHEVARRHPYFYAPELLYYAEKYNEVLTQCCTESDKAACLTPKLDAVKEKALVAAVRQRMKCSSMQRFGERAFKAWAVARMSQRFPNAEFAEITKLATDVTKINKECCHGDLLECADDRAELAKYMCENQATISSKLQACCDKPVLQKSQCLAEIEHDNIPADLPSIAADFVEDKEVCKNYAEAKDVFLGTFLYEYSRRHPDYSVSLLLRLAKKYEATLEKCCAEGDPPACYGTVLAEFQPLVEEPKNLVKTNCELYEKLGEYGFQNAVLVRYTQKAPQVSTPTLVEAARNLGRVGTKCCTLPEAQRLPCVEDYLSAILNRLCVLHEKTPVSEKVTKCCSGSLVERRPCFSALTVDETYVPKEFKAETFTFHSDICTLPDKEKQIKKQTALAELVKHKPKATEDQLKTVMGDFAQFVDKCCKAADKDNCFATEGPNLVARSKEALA
Method: (§1) All studies were conducted on a BioRad ProteOn XPR36 system using a GLC sensor chip at 25 degrees C. For amine coupling the GLC chip was activated for 5 minutes using a 1:1 mixture of sulfo-NHS/EDC diluted 30-fold from the initial stock in water as shown below. Each albumin sample was diluted to 25 ug/ml in 10 mM Na Acetate pH 5.0 and injected for 5 minutes over separate sensor surfaces. Each surface was then blocked with 1 M ethanolamine pH 8.5. Each albumin was coupled at a density of 2000-5000 in resonance units.
(§2) The binding of an engineered polypeptide was tested using 5 nM as the highest concentration in a three-fold dilution series. The running buffer contained 10 mM HEPES pH 7.4, 150 mM NaCl, 3 mM EDTA and 0.005% tween-20. All samples were tested using a 3-fold dilution series. Each concentration series was tested in duplicate. The dissociation phase for the highest concentration […] was monitored for 3 hours.

Monkey SA = molecular target: T3, Monkey SA (monkey); test: as above
T3 construct: also called monkey serum albumin
T3 sequence (A2V9Z4 25-608): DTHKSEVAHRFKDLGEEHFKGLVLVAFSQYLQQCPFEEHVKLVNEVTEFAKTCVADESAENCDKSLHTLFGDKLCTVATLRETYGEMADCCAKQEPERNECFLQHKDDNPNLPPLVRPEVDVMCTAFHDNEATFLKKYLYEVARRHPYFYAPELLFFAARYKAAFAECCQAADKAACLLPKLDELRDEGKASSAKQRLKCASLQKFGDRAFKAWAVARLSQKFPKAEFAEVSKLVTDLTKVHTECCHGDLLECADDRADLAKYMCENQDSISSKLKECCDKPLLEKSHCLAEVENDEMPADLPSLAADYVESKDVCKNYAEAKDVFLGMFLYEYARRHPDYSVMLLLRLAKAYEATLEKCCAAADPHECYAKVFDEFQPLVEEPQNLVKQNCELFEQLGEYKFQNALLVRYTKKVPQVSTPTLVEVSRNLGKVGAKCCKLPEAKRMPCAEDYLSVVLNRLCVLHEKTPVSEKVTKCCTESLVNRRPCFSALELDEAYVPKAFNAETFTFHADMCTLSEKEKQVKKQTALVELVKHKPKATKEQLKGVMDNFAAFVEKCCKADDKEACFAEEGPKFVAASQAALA
Method: as §1, §2

Dog SA = molecular target: T4, Dog SA (dog, UniProt P49822 25-608); test: as above
T4 construct: also called dog serum albumin
T4 sequence (P49822 25-608 limits assumed): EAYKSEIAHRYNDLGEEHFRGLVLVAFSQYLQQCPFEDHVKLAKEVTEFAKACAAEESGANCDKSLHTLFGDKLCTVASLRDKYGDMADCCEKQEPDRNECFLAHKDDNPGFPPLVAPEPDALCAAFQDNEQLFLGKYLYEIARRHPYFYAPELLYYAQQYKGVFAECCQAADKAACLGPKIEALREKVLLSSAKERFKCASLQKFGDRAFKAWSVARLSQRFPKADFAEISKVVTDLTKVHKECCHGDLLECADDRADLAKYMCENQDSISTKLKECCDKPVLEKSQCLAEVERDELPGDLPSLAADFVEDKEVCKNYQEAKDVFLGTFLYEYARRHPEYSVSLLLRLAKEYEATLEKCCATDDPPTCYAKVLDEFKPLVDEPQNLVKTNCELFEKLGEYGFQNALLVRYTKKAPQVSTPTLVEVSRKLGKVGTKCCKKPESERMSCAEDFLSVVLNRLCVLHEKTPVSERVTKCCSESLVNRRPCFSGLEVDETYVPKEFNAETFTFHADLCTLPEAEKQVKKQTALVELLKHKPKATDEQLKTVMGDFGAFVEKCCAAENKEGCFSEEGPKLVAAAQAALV
Method: as §1, §2

Mouse SA = molecular target: T5, Mouse SA (mouse, UniProt P07724 25-608); test: as above
T5 construct: also called mouse serum albumin
Method: as §1, §2

human serum albumin = molecular target: T6, human serum albumin (human, UniProt P02768 25-609); test: as above
T6 construct: also called HSA; Albucult (Novozyme)
T6 sequence (P02768 25-609 limits assumed): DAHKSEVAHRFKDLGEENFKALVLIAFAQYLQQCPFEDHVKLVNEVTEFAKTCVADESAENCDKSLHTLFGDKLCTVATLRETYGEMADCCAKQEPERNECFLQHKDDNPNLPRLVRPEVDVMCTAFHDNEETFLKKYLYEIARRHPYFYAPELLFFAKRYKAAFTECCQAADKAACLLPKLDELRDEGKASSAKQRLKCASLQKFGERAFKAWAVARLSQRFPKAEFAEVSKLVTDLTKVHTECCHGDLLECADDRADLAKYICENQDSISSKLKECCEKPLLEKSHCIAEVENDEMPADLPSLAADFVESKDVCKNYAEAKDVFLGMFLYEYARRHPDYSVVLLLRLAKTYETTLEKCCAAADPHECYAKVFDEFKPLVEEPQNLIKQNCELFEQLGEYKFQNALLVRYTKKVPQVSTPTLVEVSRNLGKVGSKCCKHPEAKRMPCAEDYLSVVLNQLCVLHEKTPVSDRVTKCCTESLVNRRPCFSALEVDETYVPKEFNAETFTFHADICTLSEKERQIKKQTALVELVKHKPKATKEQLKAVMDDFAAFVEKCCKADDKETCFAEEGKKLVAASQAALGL
Method: as §1, §2

Row | Binder | EC50 nM (Obeca STAT5 assay) [1] [nM] | further results
1 | B1 | 0.908 | –
2 | B2 | 0.71 | –
3 | B3 | 1.26 | –
4 | B4 | 0.941 | –
5 | B5 | 0.947 | Kd (Rat SA): 0.01 nM; Kd (Monkey SA): 0.4 nM; Kd (Dog SA): 1.81 nM; Kd (Mouse SA): 1.94 nM; Kd (human serum albumin): 0.27 nM
6 | B6 | 0.832 | –
7 | B7 | 0.634 | –
8 | B8 | 0.433 | –
9 | B9 | 0.725 | Kd (Rat SA): 0.023 nM; Kd (Monkey SA): 0.405 nM; Kd (Dog SA): 1.31 nM; Kd (Mouse SA): 1.66 nM; Kd (human serum albumin): 0.152 nM
10 | B10 | 0.506 | –
11 | B11 | 0.639 | –
12 | B12 | 0.785 | –
13 | B13 | 0.553 | –
